T1: human 1-27 CD3ε-EpCAM (1-27 N-terminal amino acids of human CD3 epsilon, Flag tag, cynomolgus EpCAM) (human CD3 epsilon 1-27 / cynomolgus …)
T1 construct: also called 1-27 CD3-EpCAM comprising the human 27 mer
T1 chain: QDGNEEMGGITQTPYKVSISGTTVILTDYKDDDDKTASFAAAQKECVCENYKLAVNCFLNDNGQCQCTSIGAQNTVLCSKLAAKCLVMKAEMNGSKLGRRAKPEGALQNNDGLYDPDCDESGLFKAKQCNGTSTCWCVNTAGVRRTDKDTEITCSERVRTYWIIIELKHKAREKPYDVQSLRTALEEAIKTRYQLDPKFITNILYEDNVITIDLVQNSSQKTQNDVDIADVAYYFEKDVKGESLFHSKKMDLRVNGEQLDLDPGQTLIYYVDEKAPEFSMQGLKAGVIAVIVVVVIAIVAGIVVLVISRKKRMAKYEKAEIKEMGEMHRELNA

T2: marmoset 1-27 CD3ε-EpCAM (Callithrix jacchus CD3 epsilon 1-27 / …)
T2 construct: Transmembrane fusion on 293-HEK or CHO cells; also called 1-27 CD3-EpCAM comprising the marmoset 27 mer
T2 chain: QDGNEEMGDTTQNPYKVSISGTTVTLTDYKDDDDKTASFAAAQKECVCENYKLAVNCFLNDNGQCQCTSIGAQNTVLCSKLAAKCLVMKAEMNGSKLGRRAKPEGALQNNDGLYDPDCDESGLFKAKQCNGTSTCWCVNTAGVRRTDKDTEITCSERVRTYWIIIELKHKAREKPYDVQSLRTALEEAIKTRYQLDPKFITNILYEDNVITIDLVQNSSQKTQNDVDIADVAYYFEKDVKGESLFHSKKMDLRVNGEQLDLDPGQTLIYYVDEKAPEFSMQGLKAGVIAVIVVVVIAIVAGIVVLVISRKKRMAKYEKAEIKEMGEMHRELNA

T3: tamarin 1-27 CD3ε-EpCAM (Saguinus oedipus CD3 epsilon 1-27 / …)
T3 construct: Transmembrane fusion on 293-HEK or CHO cells; also called 1-27 CD3-EpCAM comprising the tamarin 27 mer
T3 chain: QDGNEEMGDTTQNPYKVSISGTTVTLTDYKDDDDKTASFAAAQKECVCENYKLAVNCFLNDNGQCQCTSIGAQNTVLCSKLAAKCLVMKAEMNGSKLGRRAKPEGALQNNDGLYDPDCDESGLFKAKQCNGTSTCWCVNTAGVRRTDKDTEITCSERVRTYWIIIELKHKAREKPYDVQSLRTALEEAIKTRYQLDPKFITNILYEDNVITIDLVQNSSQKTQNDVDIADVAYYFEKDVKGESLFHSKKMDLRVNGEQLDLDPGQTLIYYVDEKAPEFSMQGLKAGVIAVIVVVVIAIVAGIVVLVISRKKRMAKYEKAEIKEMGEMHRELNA

T4: squirrel monkey 1-27 CD3ε-EpCAM (Saimiri sciureus CD3 epsilon 1-27 / …)
T4 construct: Transmembrane fusion on 293-HEK or CHO cells; also called 1-27 CD3-EpCAM comprising the squirrel monkey 27 mer
T4 chain: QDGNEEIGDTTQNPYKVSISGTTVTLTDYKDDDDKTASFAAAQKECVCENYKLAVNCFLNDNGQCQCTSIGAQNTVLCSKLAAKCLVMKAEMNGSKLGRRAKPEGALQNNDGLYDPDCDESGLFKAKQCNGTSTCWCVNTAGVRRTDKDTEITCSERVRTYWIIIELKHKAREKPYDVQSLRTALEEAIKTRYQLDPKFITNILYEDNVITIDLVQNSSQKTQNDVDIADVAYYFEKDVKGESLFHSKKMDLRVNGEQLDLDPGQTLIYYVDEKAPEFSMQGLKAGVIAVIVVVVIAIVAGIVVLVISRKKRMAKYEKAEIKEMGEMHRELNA

T5: swine 1-27 CD3ε-EpCAM (Sus scrofa CD3 epsilon 1-27 / …)
T5 construct: Negative control construct on 293-HEK or CHO cells; also called 1-27 CD3-EpCAM comprising the swine 27 mer
T5 chain: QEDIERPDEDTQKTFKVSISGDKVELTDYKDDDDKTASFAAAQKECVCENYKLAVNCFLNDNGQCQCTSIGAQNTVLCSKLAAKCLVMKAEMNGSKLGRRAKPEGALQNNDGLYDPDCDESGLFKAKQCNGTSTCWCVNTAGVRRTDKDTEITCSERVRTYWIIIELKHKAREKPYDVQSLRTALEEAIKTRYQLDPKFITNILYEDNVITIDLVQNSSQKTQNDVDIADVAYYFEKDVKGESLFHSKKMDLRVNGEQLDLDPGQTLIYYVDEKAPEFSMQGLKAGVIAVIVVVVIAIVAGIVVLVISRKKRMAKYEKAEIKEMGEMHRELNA

T6: human 1-27 CD3 BSA conjugate (peptide of the N-terminal amino acids 1-27 of human CD3 epsilon plus C-terminal … (human, printed as acetyl-QDGNEEMGGITQTPYKVSISGTTVILTC; C-terminal Cys 28 coupled to maleimide activated BSA)
T6 construct: also called peptide-BSA conjugate
T6 peptide: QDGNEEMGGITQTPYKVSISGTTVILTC


Legend:
[1] = biological target: T7, 1-27 CD3-Fc (N-terminal amino acids 1-27 of the mature human CD3 epsilon chain fused to the hinge and Fc … (human)); assay: ELISA, captured 1-27 CD3-Fc, crude periplasmic scFv
T7 construct: Entry 229 is printed without the leader peptide; also called 27 aa huCD3ε; 1-27 CD3ε-Fc

[2] = biological target: T1, human 1-27 CD3ε-EpCAM (1-27 N-terminal …); assay: FACS, transfected 293-HEK cells
[3] = biological target: T2, marmoset 1-27 CD3ε-EpCAM; assay: FACS, transfected 293-HEK cells
[4] = biological target: T3, tamarin 1-27 CD3ε-EpCAM; assay: FACS, transfected 293-HEK cells
[5] = biological target: T4, squirrel monkey 1-27 CD3ε-EpCAM; assay: FACS, transfected 293-HEK cells
[6] = biological target: T5, swine 1-27 CD3ε-EpCAM; assay: FACS, transfected 293-HEK cells, crude periplasmic scFv
[7] = biological target: T7, 1-27 CD3-Fc (N-terminal amino acids …); assay: ELISA, immobilized antigen, crude periplasmic preparation
[8] = biological target: T6, human 1-27 CD3 BSA conjugate (peptide …); assay: as above
[9] = biological target: T8, BSA (bovine serum albumin, blocking agent) (bovine, UniProt P02769 25-607); assay: ELISA, blocked wells without antigen, crude periplasmic preparation
T8 construct: also called bovine Albumin, fraction V
T8 sequence (P02769 25-607 limits assumed): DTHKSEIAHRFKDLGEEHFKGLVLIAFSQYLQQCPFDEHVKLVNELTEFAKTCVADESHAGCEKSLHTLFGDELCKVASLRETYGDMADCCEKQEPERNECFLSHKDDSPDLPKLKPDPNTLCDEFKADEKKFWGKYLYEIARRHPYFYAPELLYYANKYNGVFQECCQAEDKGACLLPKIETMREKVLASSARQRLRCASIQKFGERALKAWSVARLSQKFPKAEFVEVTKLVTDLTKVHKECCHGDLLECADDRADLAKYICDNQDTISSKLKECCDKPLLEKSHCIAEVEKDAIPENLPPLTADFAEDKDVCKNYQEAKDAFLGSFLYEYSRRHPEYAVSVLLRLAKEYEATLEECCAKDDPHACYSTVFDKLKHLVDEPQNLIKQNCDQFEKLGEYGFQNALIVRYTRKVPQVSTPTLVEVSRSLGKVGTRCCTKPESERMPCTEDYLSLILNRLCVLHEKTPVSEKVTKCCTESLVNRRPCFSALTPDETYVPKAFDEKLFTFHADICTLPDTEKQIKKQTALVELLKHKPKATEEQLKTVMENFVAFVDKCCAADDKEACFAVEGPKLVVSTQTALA

binding result [1]	binding result [2]	binding result [3]	binding result [4]	binding result [5]	binding result [6]	binding result [7]	binding result [8]	binding result [9]	Binder
binds	–	–	–	–	–	–	–	–	A2J HLP single-chain antibody (scFv, Crude periplasmic preparation from pComb3H5BFlag/His; also called VH-VL-P of A2J) scFv: EVQLLESGGGLVQPGGSLKLSCAASGFTFNVYAMNWVRQAPGKGLEWVARIRSKYNNYATYYADSVKKRFTISRDDSKNTAYLQMNNLKTEDTAVYYCVRHGNFGNSYLSWWAYWGQGTLVTVSSGGGGSGGGGSGGGGSELVVTQEPSLTVSPGGTVTLTCRSSTGAVTSGYYPNWVQQKPGQAPRGLIGATDMRPSGTPARFSGSLLGGKAALTLSGVQPEDEAEYYCALWYSNRWVFGGGTKLTVLTGDYKDDDDKHHHHHH
binds	binds	binds	binds	binds	no binding	–	–	–	E2M HLP single-chain antibody (scFv, Crude periplasmic preparation; also called VH-VL-P of E2M) scFv: EVQLLESGGGLVQPGGSLKLSCAASGFTFNGYAMNWVRQAPGKGLEWVARIRSKYNNYATYYADSVKERFTISRDDSKNTAYLQMNNLKTEDTAVYYCVRHRNFGNSYLSWFAYWGQGTLVTVSSGGGGSGGGGSGGGGSELVVTQEPSLTVSPGGTVTLTCRSSTGAVTSGYYPNWVQQKPGQAPRGLIGATDMRPSGTPARFSGSLLGGKAALTLSGVQPEDEAEYYCALWYSNRWVFGGGTKLTVLTGDYKDDDDKHHHHHH
–	–	–	–	–	–	binds	binds	no binding	anti-CD3 single domain antibody CD3 3D-H11 (VHH, Crude periplasmic preparation from pComb3H5BFlag/His; also called V CD3 3D-H11) VHH: EVQLVESGGGLVQPGGSLRLSCAASGFTFDDYGMSWVRQAPGKWLEWVSDISWNGGSTYYADSVKGRFTISRDNAENTLYLQMNSLKPDDTAVYYCAKMGEGGWGANDYWGQGTQVTVSS

Source: US20220041736A1 (Amgen, published 2022)
